Results as given in the DeepSol protein solubility set.

Assay: soluble on expression in E. coli; label from the status in PepcDB or PDB records

Row | Sequence | soluble on expression in E. coli
1 | MKKRLSILIAGLASLSVNAATEPWASPEAEVLSRAQIQQVQGKQTYTYVRCWYRPAATHDDPYTTWEWAKNADGSYYTIQGYWWSSIRQKNMFYTTVQPETLLERCEETLGVNHDFADITYFAADHRFSYNHTIWSNDPEVQSNRISKVIAFGDSLSDTGNIFNASQWRFPNPDSWFLGHFSNGFVWTEYLAQGLNVPLYNWAVGGAAGRNQYVALTGVYEQVSSYLSYMRLAKNYQPENSLFTLEFGLNDFMNYNRSLADVKADYSSALIRLIDAGAKNLVLMTLPDATRAPQFQYATQEQIDTVRSKIIGMNAFIREQARYYQMQGIRIVLFDAYTLFDSITTQPEQHGFANANSPCLDIRRNSAADYLLSHSLSAECAKQGSDRFVFWEVTHPTTAIHHYLAEQILATEMAQFPL | not soluble
2 | MGSDKIHHHHHHMRAPKISEGKINCKEDDNLKLTVLVDNNTILSNNPHFQDRYFLSEPGLSIFIEADGKKVLFDTGHTGIFLQNSEKMNLDLSDLDYLVLSHGHIDHTGGLKSLIDFYQNQGKTNLKDKPTLIAHPECFLSKIDSPWGEIGCGIPEAEITCHFQLQLSREPLWLTENLVFLGEIERSNDFENLTPLGKVHKNTEGQDDYILDDSALVYKGSKGLIIITGCSHAGICNITKYAQKVCRDERVIDIIGGLHLINPGPIQMEKTKEFLKNVAPQTIRACHCTSLRPKIALAESLNMEEVGTGLQLEYY | not soluble
3 | RKADEGKWQLVGGDIQNAIVQNICMMDDNKIACEVFGTPNGVDGRTRVCVSDASVFDFEWYEDEIYGGLIFDTFFYSPWDKLLYAKFGGIMLRSKESFITSFISPTVVQGVDVYTLAGKIRIESETPVSEVLLFDLAGRMVLRQTIDNKIYSDIDTNGLKRSGIYVVSVRLSSGQVFSHKVQV | not soluble
4 | MLSIIGQKTLTIMYWTLELASKLEDAPWPATKDELIDYAQRSGAPLEVIENLQEMEDEGEIYESIEDIWPDYPSKEDFFFNEEEY | not soluble
5 | MKLTGFLKQNVRVRFAPSPTGHLHIGGLRTAFFNYLFAKKYGGDFILRIEDTDRTRFVDDAQDQIYSSLNFYNLLPDEGPREGGKFGPYEQSKRLEIYRNAAYRLIDSGHAYRCFCSENRLDLLRKTAEKRGEIPKYDRKCANLSSRDAVKMEQNGEKFVIRFKLDKQNVQFHDEVFGSVNQFIDESDPVLLKSDGFPTYHLANVIDDRKMEISHVIRGMEWLSSTGKHTILYKAFNWTPPKFVHLSLIMRSATKKLSKRDKDAFVSYYSEQLGALPEAVLNLMIRNGAGIRNFDAEHFYSLDEMIEQFDLSLLGRRNLLLDSDVLQKYSRMAFQKSDFKELYPRIIDILNKKSNYSTSREDIQKIVTFLKAKEENFGFLSSLSTEFSWFFTRPQSSQLLKESHPNVDLRNILNSLLEIEVFNSESLEYLAKNHQLNLAKAMGIVRISLIGSKKGPPISELVEFFGMTECHRRIRIMQELL | not soluble
6 | MGSDKIHHHHHHMSCSTAVKENTTQPDIMETNKKNLGNLLALYPKPMTVVGAEVEGKVNWLVVGHTGVIGHDRILVSMSKSHYTNQGIKKSKRLSVNLVSREMLPKADYVGSVSGATVDKSEVFAYHIGENDTPVIDASPLTMECEVVDIYETDGFDNFICAIVNTYAASDVLDSDGKLDYTKLKPVLFEFPTYSYLATGEIIGKCLNPDKPGMCVKEPMTTDGIVRLSKIEVYPQYLDEYMNYATEVGEISLRTEPGVLTMYAVGEKENPCKVTILETYASREAYEQHIASEHFQKYKQGTLHMVKSLVLSDQTPLNPANKLNNFMQ | not soluble
7 | MSLSDKHIKQTVLNSNDNRISPSHVCDIFLPQNGLSERWKAFTRRRFVIAETGFGTGLSFLTACQQFTQFRQANPTATVKELHFISFEQHPLTKSDLIKATEKWPEFAHFSQQLHAHYPPAVSDCHRIVLDEGLITLDLWFGNITDSMPQVWTNDDGIVDAWFTDGFATESNAALLKSLTIINSIAILARENSTIHAITYHQGNQQDVLEQSLTEAGFDMTESHNEGHHHHHH | soluble
8 | MAKNRFVRDVRLIASTSGDPIDAGQNGELLKSLYYQIAVHCIVLPPLRERKEDILPLAIHFIRQGNERYGLHVEGLGDDVQEAFLAYSWPGNVRELEAVILETMATMEQEQTITLAHLPAPFRAKLAPDETKTDFLFDTEDILPLDKYMEEVEIYYIRKALQHHGFNITKTAKALGLSRQNLQYRIRKYQIDKEWG | not soluble
9 | MKKKNVVVFGGGTGLSVLLRGLKTFPVSITAIVTVADDGGSSGRLRKELDIPPPGDVRNVLVALSEVEPLLEQLFQHRFENGNGLSGHSLGNLLLAGMTSITGDFARGISEMSKVLNVRGKVLPASNRSIILHGEMEDGTIVTGESSIPKAGKKIKRVFLTPKDTKPLREGLEAIRKADVIVIGPGSLYTSVLPNLLVPGICEAIKQSTARKVYICNVMTQNGETDGYTASDHLQAIMDHCGVGIVDDILVHGEPISDTVKAKYAKEKAEPVIVDEHKLKALGVGTISDYFVLEQDDVLRHNASKVSEAILEGKPRTSSSIQAAALEHHHHHH | soluble
10 | MHSQVFSAFPHSLPLRSWVNVIKNPQFVFDIHKGSITDACLSVVAQTFMDSCSTSEHRLGKDSPSNKLLYAKDIPSYKSWVERYYADIAKLPAISDQDMNAYLAEQSRLHAVEFNMLSALNEIYSYVSKYSEELIGALEQDEQARRQRLAYKVEQLINAMSIESLEHHHHHH | not soluble
11 | MELNDMAQFNEPISSQLLAIDENLTQLVTDIDILSSVNPLNYAQERERFISNKYSQEPNFQYQKAPLDTHQSKRRLYELPLEHIEDTQLQKLYEDVIQSYADKLDQVNTIGTQEFLYNSLRYYGEPSAKDIANAHFILHLPTEEESKPEHDSRSIAHFMQSFADKNGYECEIQILDGMLANALVSGSRVKINSAAHITTDELEALAHHEMGVHLLTTLNGRQQPLKVLSLGCPANTNTQEGLAILCEYLSGHFSIKRLRTLALRVLAVESMIKERDFRHTFMLLKEQYKASDVQAFTITSRVYRGGGLTKDYLYLRGFREVLNAYDKLGDDFSLLLCGKTELKYFDLIRSLVNKGIFTQPKFISPALSTPKQTNPIHRYIVSALKLEHHHHHH | soluble
12 | AQVEPTVAYPHIPSNGRVAGSDRIRVTHAYVGSCTNGRITDLRDVARILKGRKVAQDVQMIVVPATQAIWKQAAQEGLLEIFVDAGASVSYPSCGACLGMHSGVLGPDDICISSSNRNFVGRMGDPSAQIYLASPATVAASAVEGFIADPRRYDAEGND | not soluble
13 | MLLPRCCWGRWLMGRRPRCSCQAPAGFDGKDGRGSRVREMPPWRVLFLGTDHFARETLRALHAARDGKEEKLIEKLEVVTVPSLSPKGLPVKQYAIQSQLPVYEWPDVGSGEYDVGVVASFGRLLSEALILKFPYGILNVHPSCLPRWRGPAPIIHTVLHGDTVTGVTIMQIRPKRFDIGPILQQETIPVPPKSTSKELEAVLSKLGANMLISVLKNLPESLNNGRPQPAEGVTYAPKVSAGTSCVKWEEQTSEQVLRLHLAIGDIVPLQTLWMENTVKLLDLVEVNNSILADPKLTGQTVTPGFVVYHRPSQMLLVRCKDGWIGVRSVMLKKTLTATDFYNGYLHAWYQKNSHAHPSQCRFQTLRLPTKMQQKTKLLLCNSALSS | soluble
14 | MFSQAQFNVTMAEEDRWKQWYPNMEMIVNNKGPKLIFPELNFNITGLEEKSRYVVLLSIEKYDNIRYGYRNGKWGPSKVRHATKKEQEIKYFLHPDGTKLGKELMKETIKFDTVRITNHKKFMDKDNVFFVETMHKYVPVLTVKNITNVESANHSMRMEVAQFFPVTVYNQESIGNWKSKFHKNSTYGNRLDGGNKRKNTDSSEERTSKRSKNETEIAVSDILQVASQSENYNESTNSGRLQNEISSSIHQFPSTSYQNQYPHAYPTVNTPPIYVQQFTALFDEIHNQFDPKTKQNRVAKNVQYLSSVPQFAINQKENIHQNAPDYPVSQFPNQYPYGSYPYYYPYFQSSQQFPHLNYSMNNSIYSDSSFQSSFSAENSYFDENGNPIHYPYYSSN | not soluble
